One substance from article PMC7667676 can be followed below.

The assay addresses endogenous phosphorylated p38 (P-p38) (human (endogenous in Huh7.5.1)) (UniProt Q16539).
UniProt Q16539, sequence (Q16539 whole entry): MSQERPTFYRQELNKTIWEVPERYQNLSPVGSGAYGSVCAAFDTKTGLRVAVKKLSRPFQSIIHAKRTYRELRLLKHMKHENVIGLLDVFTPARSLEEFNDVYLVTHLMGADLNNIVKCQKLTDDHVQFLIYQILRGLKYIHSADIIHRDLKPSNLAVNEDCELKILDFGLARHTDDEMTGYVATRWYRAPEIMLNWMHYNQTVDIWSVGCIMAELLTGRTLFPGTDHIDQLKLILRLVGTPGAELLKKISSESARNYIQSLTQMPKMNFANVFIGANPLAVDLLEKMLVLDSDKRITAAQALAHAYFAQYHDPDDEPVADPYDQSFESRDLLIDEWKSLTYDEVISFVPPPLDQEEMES

For the substance “HCV core protein N-terminal peptide (CN-peptide)”, the reduction of intracellular HCV RNA (qRT-PCR) in JFH1-infected primary human hepatocytes incubated with the CN-peptide for 72 h; the pair blocked is p38α and the HCV core protein (m8 and m9) came to 91%.
